Assay results published in patent US20110182905A1 (published 2011).
Where “and” joins values, the source holds several entries; their conditions need not be identical. Identical values can stand only once.

What was measured:
[1] = target: T1, purified hGM-CSF (Biomol #2514, expressed in E. coli) (human, UniProt P04141 18-144); test: Biacore, antibody on mouse anti-human chip, soluble hGM-CSF (Biomol)
T1 construct: also called rhGM-CSF (derived from E. coli); human recombinant GM-CSF
Text: (§1) Mouse anti-human Biacore chips (GE Healthcare) are used to immobilize each of the antibodies and soluble commercially available purified GM-CSF (Biomol) is allowed to bind. The hGM-CSF used in these experiments is the same as that used in the bioassays described below.

rhesus GM-CSF [2] = target: T2, rhesus GM-CSF (rhesus); test: Biacore, antibody on mouse anti-human chip, soluble rhesus GM-CSF
T2 construct: also called rrGM-CSF (derived from HEK cells); recombinant rhesus GM-CSF
Text: as §1
The rhesus GM-CSF sequence is present in the public databases (e.g., GenBank Accession No NP_{—}001028121) and is used to design an expression clone as an Fc fusion protein. Protease cleavage sites are introduced to allow release of untagged rhesus GM-CSF protein.

[3] = target: T3, recombinant hGM-CSF derived from yeast (Leukine, Berlex) (human, UniProt P04141 18-144); test: SPR (Biacore), antibody captured on protein G, hGM-CSF injected
T3 construct: Bought protein; also called yeast hGM-CSF (Leukine); yeast rhGM-CSF
T3 sequence (P04141 18-144 limits assumed): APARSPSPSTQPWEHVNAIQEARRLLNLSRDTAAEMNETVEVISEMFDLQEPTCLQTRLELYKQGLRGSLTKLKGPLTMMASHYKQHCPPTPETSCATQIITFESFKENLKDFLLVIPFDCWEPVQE
Experimental: (§2) To calculate affinity constants for recombinant hGM-CSF binding to anti-hGM-CSF monoclonal antibodies, surface plasmon resonance (SPR) was performed on a Biacore System™ (FIG. 2).
(§3) In the method to analyze the interaction between antibodies and antigens, the purified antibodies were captured on a sensor chip via interaction with protein G immobilized to sensor chip surface, and then recombinant antigens were injected to the sensor chip. Purified antibodies were used and recombinant hGM-CSF was used as an antigen.

[4] = target: T4, recombinant hGM-CSF derived from E. coli (Peprotech) (human, UniProt P04141 18-144); test: as above
T4 construct: Bought protein; also called E. coli hGM-CSF (Peprotech); E. coli rhGM-CSF
T4 sequence (P04141 18-144 limits assumed): as above
Experimental: as §2, §3

[5] = target: T1, purified hGM-CSF (Biomol #2514, …); test: own Biacore KD of EV1018 set against the 7 pM cited for MOR04357-Fab from WO2006/122797
rhesus GM-CSF [6] = target: T2, rhesus GM-CSF; test: cell-based or functional assay
[7] = target: T1, purified hGM-CSF (Biomol #2514, …); test: cell-based or functional assay
rhesus GM-CSF [8] = target: T2, rhesus GM-CSF; test: cell-based or functional assay; remark: listed apart in the source
[9] = target: T1, purified hGM-CSF (Biomol #2514, …); test: cell-based or functional assay; remark: listed apart in the source
marmoset GM-CSF = target: T5, marmoset GM-CSF (marmoset); test: Biacore, antibody on mouse anti-human chip, soluble marmoset GM-CSF
T5 construct: also called rmGM-CSF (derived from HEK cells); recombinant marmoset GM-CSF
Text: as §1
A marmoset GM-CSF expression clone (e.g., GenBank Accession No. B0KWQ4 with Methionine at position 53 and Proline at position 109) similar to the rhesus GM-CSF expression clone described above is generated.

[10] = target: T1, purified hGM-CSF (Biomol #2514, …); test: cell-based or functional assay; remark: listed apart in the source

T1 sequence (P04141 18-144 limits assumed): as above

| Binder | Kd [1] [nM] | Kd (rhesus GM-CSF [2]) | Kd [3] [nM] | Kd [4] [nM] | times less binding than MOR04357 [5] [fold] | IC50 in U937 IL-8 secretion assay (rhesus GM-CSF [6]) | IC50 in U937 IL-8 secretion assay [7] | IC50 in TF-1 proliferation assay (rhesus GM-CSF [8]) | IC50 in TF-1 proliferation assay [9] | Kd (marmoset GM-CSF) [nM] | Ratio: Reference antibody (BVD2-21C11) to antibody of interest, TF-1 assay [10] [ratio] |
| --- | --- | --- | --- | --- | --- | --- | --- | --- | --- | --- | --- |
| EV1018 (antibody, human IgG1, lambda, also called wild-type EV1018; WT EV1018) heavy: not shown light: QSALTQETSVSGTVGQKVTLSCIGNNNNIGSHAVGWYQQISRGAPKMVLFGRSPPSGVPDRFSGSKSGTTASLIISGLQPEDEADYYCSTWDSSLSAVVFGGGTKLTVLRQPKAAPSVTLFPPSSEELQANKATLVCLISDFYPGAVTVAWKADSSPVKAGVETTTPSKQSNNKYAASSYLSLTPEQWKSHRSYSCQVTHEGSTVEKTVAPTECS | 0.112 | 0.381 nM | 0.23 | 0.15 | ~16 | 0.8 ng/ml and 5.6 pM | 0.9 ng/ml and 6 pM | 1.7 ng/ml and 11 pM | 2.3 ng/ml and 15 pM | 2.1 | 413 |
| EV1018 variant 1 (antibody, human IgG1, lambda, L234A L235A) heavy: not shown light: QSALTQETSVSGTVGQKVTLSCIGNNNNIGSHAVGWYQQISRGAPKMVLFGRSPPSGVPDRFSGSKSGTTASLIISGLQPEDEADYYCSTWDSSLSAVVFGGGTKLTVLGQPKAAPSVTLFPPSSEELQANKATLVCLISDFYPGAVTVAWKGDSSPVKAGVETTTPSKQSNNKYAASSYLSLTPEQWKSHRSYSCQVTHEGSTVEKTVAPTECS | – | – | – | – | – | – | – | – | 0.032 nM | – | – |
| EV1018 variant 2 (antibody, human IgG1, lambda, L234A L235A, V domains shown) VH: QVELVESGGGMVQPGMPLRLSCVASGFTFSSYGMHWVRQAPGKGLEWVALTYHHGNRKFYADSVRGRFTISRDNSKNTLYLQMTSLRAEDTAVYFCARESMGAINDNWGQGTLVIVSS VL: QSALTQETSVSGTVGQKVTLSCIGNNNNIGSHAVGWYQQISRGAPKMVLFGRSPPSGVPDRFSGSKSGTTASLIISGLQPEDEADYYCSTWDSSLSAVVFGGGTKLTVLG | – | – | – | – | – | – | – | – | 0.0333 nM | – | – |
| EV1019 (antibody, human IgG1, lambda, V domains shown, Fully human IgG1 lambda; also called EV1019 Batch 1; EV1019 Batch 2) VH: QAQLVESGGGVVKPGGSLRLSCISSKFTFSSHAMHWVRQAPGKGLEWVAVIWHDGSKKYYADSVKGRFSVSRDNSKNTLFLQMDSLRAEDTAVYFCGKEWVGGTCDSWGQGTLVIVSS VL: QPALTQEASVSGTVGQTVTLLCSGNSSNIGSYAVGWYQQISRGAPKIVVFGKSPASGIPDRFSGSKSGTTASLLVSGLQPEDEADYYCSTWDSRLSAVLFGGGTKLTVLR | 0.152 | 0.739 nM and 0.543 nM | 0.36 | 0.15 | – | 2.4 ng/ml and 16 pM | 4.7 ng/ml and 31.3 pM | 2.8 ng/ml and 19 pM | 5.7 ng/ml and 38 pM | 1.4 | – |
